In article PMC2756145:
Residue numbers refer to the chain shown, from its start.

Columns and labels:
Assay in all cases: filter binding
Pot1-DBD_Y115A = molecular target: T1, Pot1-DBD_Y115A (Schizosaccharomyces pombe, UniProt O13988 1-389, Y115A)
T1 sequence: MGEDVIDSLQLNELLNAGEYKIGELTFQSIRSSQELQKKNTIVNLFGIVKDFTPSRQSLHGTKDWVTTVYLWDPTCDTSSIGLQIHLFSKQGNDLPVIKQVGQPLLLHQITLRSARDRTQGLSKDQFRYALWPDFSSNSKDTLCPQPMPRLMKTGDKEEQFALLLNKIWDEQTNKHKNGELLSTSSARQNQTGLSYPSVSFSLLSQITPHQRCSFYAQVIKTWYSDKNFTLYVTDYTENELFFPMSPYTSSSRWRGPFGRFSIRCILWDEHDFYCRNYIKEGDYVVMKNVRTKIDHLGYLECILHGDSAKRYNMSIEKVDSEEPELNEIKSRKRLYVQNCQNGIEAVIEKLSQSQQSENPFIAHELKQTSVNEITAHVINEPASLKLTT

Pot1-DBD_T62A = molecular target: T2, Pot1-DBD_T62A (Schizosaccharomyces pombe, UniProt O13988 1-389, T62A)
T2 sequence: T1 sequence with T62A, A115Y

Pot1-DBD_S123A = molecular target: T3, Pot1-DBD_S123A (Schizosaccharomyces pombe, UniProt O13988 1-389, S123A)
T3 sequence: T1 sequence with A115Y, S123A

Work on GGTTACGGTTAC (ssDNA) [12mer] yielded a Kd (Pot1-DBD_Y115A) of 0.08 ± 0.004 µM, a Kd (Pot1-DBD_T62A) of 0.09 ± 0.003 µM and a Kd (Pot1-DBD_S123A) of 0.03 ± 0.002 µM.
